In publication PMC10682670:

Columns and labels:
[1] = biological target: COMP-Ang1 fusion protein (encoded by mRNA-76), secreted by HeLa cells (not stated ('humanized' fusion protein) | human); test: non-reducing PAGE with immunoblot; concentrated serum-free supernatant of mRNA-transfected HeLa cells, non-reducing PAGE, Western blot with Ang1-specific antibody
[2] = biological target: CMP-Ang1 fusion protein (encoded by mRNA-59) (human); test: as above

| stoichiometry N [1] | stoichiometry N [2] | Substance |
| --- | --- | --- |
| 5 | – | COMP-Ang1 fusion protein (encoded by mRNA-76), secreted by HeLa cells (ligand) |
| – | 2 | CMP-Ang1 fusion protein (encoded by mRNA-59) (ligand) |
